# Test results taken from patent US20040229289A1, “Antigen binding peptides (abtides) from peptide libraries” (Cytogen Corporation, priority 1994, published 2004).
# T1: PEM peptide (human)
# T1 peptide: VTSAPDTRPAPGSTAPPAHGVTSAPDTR
# Molecular target: T1, PEM peptide
# Experiment: phage ELISA on PEM
# Conditions: not given
row,Molecule,binding result
1,VSTGWSGTPRWCAPGGKQGSGCGNGPRWTTLTPDLGGTRKYGP [E4],binds
2,GAPLWCEKLSGTGSGGFKWPGCGSGPTYNTFTPARVGSDNKWP [E7],binds
3,GPPVWSAKSRWTGTGVLNWPGCGKVPSCSTYTPSRDRSRKSDP [E16],binds
4,GSALLTSKGCVRGPGGLMRPGCGNDRLGKSSTYAHGGWIKTGP [E21],binds
5,GSPVWSGDNRWRGSSPLKRPGCGNGAKCNTLKDNRKDSRKTKH [E33],binds
6,GSPVWMGSTRWTGHGWFRSQGCGNVPRTNSCAPAGKDSQNKGP [E65],binds
7,GAPVWRGNRWCSDNGELERPGCGYGPRFNILPPGRGNSRKPSP [E73],binds
8,GSSGWKVKHRCGGPGTLQRPGCGNLPLGHTFPPTRGGSHMEGA [E84],binds
9,GPRSWMGQPRGSDAGSCKWAGCGDAPMWRASTPGHGGPPNRGS [E85],binds
10,EALVCRGKPPWSGPAGLLWQGCGTGPVSRTFTSAQGRSRNKTS [E88],binds
11,GAPVVGDILWCSGARGAKWPGCGKGPTNKTFSHSRGGTQKSGL [E90],binds
12,GAPVSRCKPACGGFWGVNWPGCGNASMCKTFTNGHGVSSDNGH [E22],binds
13,GAHGYKNGSTCTGLGGWRCRGCGKGAMCNNPSPAGGAYHNQGP [E29],binds

# Molecular target: T2, PEM (Homo sapiens, UniProt P15941)
# T2 construct: made in house; host or cells: chemical peptide synthesis
# Experiment: ELISA of phage from the MP-1 saturation mutagenesis library for binding to PEM
# Conditions: phage-displayed abtide from MP-1 saturation mutagenesis library
# Procedure: A saturation mutagenesis library based on one of the PEM abtides, MP-1, was constructed. Nucleotide sequences encoding the MP-1 abtide were synthesized using a doping scheme similar to that described in Section 5.3 whereby each nucleotide was contaminated with 9% of each of the other 3 nucleotides (e.g. G=73% G, 9% A, 9% T, 9° C.). The resulting mutagenic oligonucleotides were used to construct a library by TSAR library methods described above (see FIG. 13).
# The resulting library was screened to identify phage expressing abtides capable of binding to PEM. The binding of isolated phage to PEM was confirmed by an ELISA assay.
row,Molecule,binding of isolated phage to PEM (ELISA)
1,ADPVCSRKPDGGGLRGLRWPGCGKGPILYNVTAARGGSRNNGP [E70],Positive Binding Sequences
2,AGRELRQDEGEGGAGADVARLREGPICSTFTPARGGSCPSGL (phage displayed) [E43],Negative Binding Sequences
3,CAPMWSGKPPWCVGGGVKFRGCGNRPDCNIITPRLVESRDKAL [E68],Positive Binding Sequences
4,EALVCRGKPPWSGPAGLLWQGCGTGPVSRTFTSAQGRSRNKTS [E88],Positive Binding Sequences
5,G PLLPGEAAVHGARGLMRSGCGNGPTWNRLTAACRDSRNKGP (GPLLPGEAAVHGARGLMRSGCGNGPTWNRLTAACRDSRNKGP; phage displayed; extra N-terminal G) [E44],Positive Binding Sequences
6,G PQGSEHQCCSGHWGLKFPGCGNGPICNNFTALRGASRKNGP (GPQGSEHQCCSGHWGLKFPGCGNGPICNNFTALRGASRKNGP) [E62],Positive Binding Sequences
7,GAHGYKNGSTCTGLGGWRCRGCGKGAMCNNPSPAGGAYHNQGP (phage displayed) [E29],Positive Binding Sequences
8,GAPLWCEKLSGTGSGGFKWPGCGSGPTYNTFTPARVGSDNKWP [E7],Positive Binding Sequences
9,GAPLWQGDPADEVLGGSMIPGCGIGALSQTFTPTPGGSRKNVT (phage displayed) [E37],Negative Binding Sequences
10,GAPVSRCKPACGGFWGVNWPGCGNASMCKTFTNGHGVSSDNGH (phage displayed) [E22],Positive Binding Sequences
11,GAPVVGDILWCSGARGAKWPGCGKGPTNKTFSHSRGGTQKSGL [E90],Positive Binding Sequences
12,GAPVWRGNPRWRGPGGFKWPGCGNGPMCNTFTPARGGSRNNGP [MP-1],Positive Binding Sequences
13,GAPVWRGNRWCSDNGELERPGCGYGPRFNILPPGRGNSRKPSP [E73],Positive Binding Sequences
14,GDPECRGKPRGRWTGSLACTGCGNGPNSKICTRARGVSRNKGP [E60],Negative Binding Sequences
15,GEPVWCRHSGGRVQGGLDWLGCGDGPLRYTVTPARGGPSKHGP [E64],Positive Binding Sequences
16,GLSLVRGDSWGSGAGGWKRHGCGHGPMYNPQTPARGGSCTRNT [E66],Positive Binding Sequences

row,Molecule,binding of isolated phage to PEM (ELISA)
1,GPPVWSAKSRWTGTGVLNWPGCGKVPSCSTYTPSRDRSRKSDP (phage displayed) [E16],Positive Binding Sequences
2,GPRSWMGQPRGSDAGSCKWAGCGDAPMWRASTPGHGGPPNRGS [E85],Positive Binding Sequences
3,GQPECRITSGCCGTDGNKWLGCGKVDMCNTLNPAVGCHGTNGS (phage displayed) [E34],Negative Binding Sequences
4,GSALLTSKGCVRGPGGLMRPGCGNDRLGKSSTYAHGGWIKTGP (phage displayed) [E21],Positive Binding Sequences
5,GSPVWMGSTRWTGHGWFRSQGCGNVPRTNSCAPAGKDSQNKGP [E65],Positive Binding Sequences
6,GSPVWSGDNRWRGSSPLKRPGCGNGAKCNTLKDNRKDSRKTKH (phage displayed) [E33],Positive Binding Sequences
7,GSSGWKVKHRCGGPGTLQRPGCGNLPLGHTFPPTRGGSHMEGA [E84],Positive Binding Sequences
8,GSSVCGGQPSGRGFGGLPGPGCGNGPTSNTLTSARGGFPNKGL (phage displayed) [E27],Negative Binding Sequences
9,GTRVPPGFALRGGRDGLSWAGCGKAPISKTYTSARGRSRKKGS (phage displayed) [E3],Negative Binding Sequences
10,QARVSMAISCRSGPSDLMHQGCGYGPRCNPDTTDSGGSHTNTP (phage displayed) [E49],Negative Binding Sequences
11,REPVVGGKPWCRGPGGLRWRGCGKSQFDKIITLSRDNRRDKRP [E83],Negative Binding Sequences
12,RSAVSEGKPREIVPGGCMWPGCGNGRKSNTLTHGPEQFQEIEP (phage displayed) [E15],Negative Binding Sequences
13,SSGVGNGKPRSWAPDALNGGCGNIQFANTITPDRGGSCNQTL (phage displayed) [E24],Negative Binding Sequences
14,STPGCSGYSGSGDPRCLTCTACGNGHTRKTLTPAHGRSTHKEP [E72],Negative Binding Sequences
15,VSRAWSGKPRLMGSHGLNCPGCGKGHSGIMFIPDPAGSANTPP [E67],Positive Binding Sequences
16,VSTGWSGTPRWCAPGGKQGSGCGNGPRWTTLTPDLGGTRKYGP (phage displayed) [E4],Positive Binding Sequences
